Laboratory results from PMC10770727.

Columns and labels:
[1] = target: human recombinant S100A10 (human) (UniProt P60903); experiment: SPR; bovine CRT or human recombinant S100A10 amine-coupled to CM5 chips (1000 to 1300 RU), BIACORE 3000; Glu-plasminogen (0-1 uM) or 0.5 uM bovine serum albumin flowed at 50 ul/min; 25 °C; HBS-ET (10 mM Hepes pH 7.4, 150 mM NaCl, 3 mM EDTA, 0.05% Tween-20); apparent KD from steady-state affinity model
[2] = target: bovine liver calreticulin (bovine) (UniProt P52193); experiment: as above
Sequence of UniProt P52193 (P52193 18-417): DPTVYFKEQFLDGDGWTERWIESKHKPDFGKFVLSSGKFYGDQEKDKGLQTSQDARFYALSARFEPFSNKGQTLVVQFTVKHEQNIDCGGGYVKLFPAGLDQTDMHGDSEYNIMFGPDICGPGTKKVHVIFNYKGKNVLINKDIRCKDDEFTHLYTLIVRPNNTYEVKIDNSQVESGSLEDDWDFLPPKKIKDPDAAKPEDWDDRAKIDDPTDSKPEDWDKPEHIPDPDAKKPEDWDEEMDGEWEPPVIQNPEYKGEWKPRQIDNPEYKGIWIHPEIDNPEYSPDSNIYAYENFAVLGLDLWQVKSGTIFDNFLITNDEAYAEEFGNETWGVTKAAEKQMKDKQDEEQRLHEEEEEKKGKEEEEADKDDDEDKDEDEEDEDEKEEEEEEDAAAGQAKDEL

[3] = target: recombinant human calreticulin (amino acids 18 to 417, N-terminal His-tag) (human) (UniProt P27797)
Sequence of UniProt P27797 (P27797 18-417): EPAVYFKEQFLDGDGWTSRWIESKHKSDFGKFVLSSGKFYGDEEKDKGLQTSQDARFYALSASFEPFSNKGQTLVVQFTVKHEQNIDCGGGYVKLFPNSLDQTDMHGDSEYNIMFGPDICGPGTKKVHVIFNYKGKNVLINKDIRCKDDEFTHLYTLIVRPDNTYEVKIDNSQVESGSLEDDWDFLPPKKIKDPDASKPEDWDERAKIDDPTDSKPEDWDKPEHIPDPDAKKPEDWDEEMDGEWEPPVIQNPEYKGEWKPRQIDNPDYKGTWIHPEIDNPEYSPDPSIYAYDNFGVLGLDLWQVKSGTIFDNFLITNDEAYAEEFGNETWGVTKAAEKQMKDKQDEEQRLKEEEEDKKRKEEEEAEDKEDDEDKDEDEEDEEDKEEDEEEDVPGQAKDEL

Sequence of UniProt P60903 (P60903 whole entry): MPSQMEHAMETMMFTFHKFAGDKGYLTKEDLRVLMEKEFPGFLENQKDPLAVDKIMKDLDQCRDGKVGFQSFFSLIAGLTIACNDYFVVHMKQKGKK

Kd [1]: 0.5 µM
Kd [2]: 1.9 µM
inhibition by 10 mM ε-ACA of the stimulation of tPA-dependent plasminogen activation by 0.5 μM recombinant human CRT [3]: 80%
Substance: human Glu-plasminogen (natural protein)
